Experimental findings from US7790365B2, “Assays for modulators of parkin activity using S5a as a parkin substrate” (Elan Pharma International Limited, priority 2007, dated 2010) are described below.

For series [1], the system named is S5a. Kind of series: ubiquitination assay of E3 ligases using S5a as the substrate. It counts as biochemical. The note with it: 0.2 mg/mL E3, 200 nM S5a, 1 hour at 37° C., Western blot. Here is the method:
For each E3 ligase, a ubiquitination assay using S5a as the substrate was carried out. Briefly, the ubiquitination reaction contained 50 nM E1, 1 mM MgATP, 5 μM UbcH7, 0.2 mg/mL E3, 200 nM ubiquitin, and 200 nM S5a. Ubiquitination reactions were incubated for 1 hour at 37° C. and samples were taken at time 0, 30′ and 60′. Samples were run on SDS-PAGE, transferred to immobilon and Western blotted using monoclonal antibody to S5a (BioMol).

Series [2] deals with S5a. Kind of series: thermal denaturation of E3 ligases (S5a ubiquitination after pre-incubation). It is filed as biochemical. The note with it: for Thermal Denaturation Temperature (temperature at which approximately 50% of activity was lost): E3 pre-incubated 90 minutes at 4° C. to 60° C., then S5a ubiquitination 60 minutes at 37° C. Here is the method:
To characterize the thermal denaturation properties E3 ligases, the E3 was pre-incubated for 90 minutes at a temperature ranging from 4° C. to 60° C. (Mdm2 and Nedd4 at 4, 37, 45, 50 and 60° C.; Murf1 at 4, 37, 50, 60, 70 and 80° C.; E6AP at 37, 39, 41, 43, and 45° C. At 90 minutes, a pre-mix was made containing 50 nM E1, 1 mM Mg-ATP, 5 μM UbcH7 (UbcH5a for Mdm2 and Murf1), 200 nM ubiquitin and 200 nM S5a. The pre-mix was added to 0.2 mg/mL of E3 ligase and incubated at 37° C. for 60 minutes. Samples were run on SDS-PAGE and assessed by Western blotting using monoclonal antibody to S5a (BioMol).

Entries after “also recorded” stand apart in the source; their conditions may differ.

Turning to “GST-E6AP: GST fusion of Human papillomavirus E6-associated protein, HECT E3 ligase”, the “Ubiquitinated S5a?” value in series [1] is reported as “Yes”. The “Thermal Denaturation Temperature (temperature at which approximately 50% of activity was lost)” value in series [2] and in series [2] (listed as E6AP) was 41 °C in each case.

B1: His-CHIP: His-tagged carboxyl terminus of Hsp70-interacting protein, U-box E3 ligase (protein)
chain: MKGKEEKEGGARLGAGGGSPEKSPSAQELKEQGNRLFVGRKYPEAAACYGRAITRNPLVAVYYTNRALCYLKMQQHEQALADCRRALELDGQSVKAHFFLGQCQLEMESYDEAIANLQRAYSLAKEQRLNFGDDIPSALRIAKKKRWNSIEERRIHQESELHSYLSRLIAAERERELEECQRNHEGDEDDSHVRAQQACIEAKHDKYMADMDELFSQVDEKRKKRDIPDYLCGKISFELMREPCITPSGITYDRKDIEEHLQRVGHFDPVTRSPLTQEQLIPNLAMKEVIDAFISENGWVEDY
modifications: left off: small tags and cut ends
As to B1, the “Ubiquitinated S5a?” value is “Yes” in series [1] and “reasonable activity” in series [1] (listed as CHIP).

B2: GST-Murf1: GST fusion of Muscle-specific RING finger protein 1, RING E3 ligase (protein)
chain: MDYKSSLIQDGNPMENLEKQLICPICLEMFTKPVVILPCQHNLCRKCANDIFQAANPYWTSRGSSVSMSGGRFRCPTCRHEVIMDRHGVYGLQRNLLVENIIDIYKQECSSRPLQKGSHPMCKEHEDEKINIYCLTCEVPTCSMCKVFGIHKACEVAPLQSVFQGQKTELNNCISMLVAGNDRVQTIITQLEDSRRVTKENSHQVKEELSQKFDTLYAILDEKKSELLQRITQEQEKKLSFIEALIQQYQEQLDKSTKLVETAIQSLDEPGGATFLLTAKQLIKSIVEASKGCQLGKTEQGFENMDFFTLDLEHIADALRAIDFGTDEEEEEFIEEEDQEEEESTEGKEEGHQ
modifications: left off: a dimerising Fc or GST
notes: GST fusion of Muscle-specific RING finger protein 1, RING E3 ligase
B2: in series [1], the “Ubiquitinated S5a?” value is given as “Yes”. The “Thermal Denaturation Temperature (temperature at which approximately 50% of activity was lost)” value in series [2] and in series [2] (listed as Murf1) was 60 °C each time.

B3: GST-parkin: GST fusion of parkin, RING class E3 ligase (protein)
chain: MIVFVRFNSSHGFPVEVDSDTSIFQLKEVVAKRQGVPADQLRVIFAGKELRNDWTVQNCDLDQQSIVHIVQRPWRKGQEMNATGGDDPRNAAGGCEREPQSLTRVDLSSSVLPGDSVGLAVILHTDSRKDSPPAGSPAGRSIYNSFYVYCKGPCQRVQPGKLRVQCSTCRQATLTLTQGPSCWDDVLIPNRMSGECQSPHCPGTSAEFFFKCGAHPTSDKETSVALHLIATNSRNITCITCTDVRSPVLVFQCNSRHVICLDCFHLYCVTRLNDRQFVHDPQLGYSLPCVAGCPNSLIKELHHFRILGEEQYNRYQQYGAEECVLQMGGVLCPRPGCGAGLLPEPDQRKVTCEGGNGLGCGFAFCRECKEAYHEGECSAVFEASGTTTQAYRVDERAAEQARWEAASKETIKKTTKPCPRCHVPVEKNGGCMHMKCPQPQCRLEWCWNCGCEWNRVCMGDHWFDV
modifications: left off: a dimerising Fc or GST
notes: GST fusion of parkin, RING class E3 ligase
For B3, the “Ubiquitinated S5a?” value in series [1] was “Yes”. The “Thermal Denaturation Temperature (temperature at which approximately 50% of activity was lost)” value in series [2] is 49 °C.

B4: GST-Nedd4: GST fusion of Nedd4, HECT E3 ligase (protein)
chain: MATCAVEVFGLLEDEENSRIVRVRVIAGIGLAKKDILGASDPYVRVTLYDPMNGVLTSVQTKTIKKSLNPKWNEEILFRVHPQQHRLLFEVFDENRLTRDDFLGQVDVPLYPLPTENPRLERPYTFKDFVLHPRSHKSRVKGYLRLKMTYLPKTSGSEDDNAEQAEELEPGWVVLDQPDAACHLQQQQEPSPLPPGWEERQDILGRTYYVNHESRRTQWKRPTPQDNLTDAENGNIQLQAQRAFTTRRQISEETESVDNRESSENWEIIREDEATMYSNQAFPSPPPSSNLDVPTHLAEELNARLTIFGNSAVSQPASSSNHSSRRGSLQAYTFEEQPTLPVLLPTSSGLPPGWEEKQDERGRSYYVDHNSRTTTWTKPTVQATVETSQLTSSQSSAGPQSQASTSDSGQQVTQPSEIEQGFLPKGWEVRHAPNGRPFFIDHNTKTTTWEDPRLKIPAHLRGKTSLDTSNDLGPLPPGWEERTHTDGRIFYINHNIKRTQWEDPRLENVAITGPAVPYSRDYKRKYEFFRRKLKKQNDIPNKFEMKLRRATVLEDSYRRIMGVKRADFLKARLWIEFDGEKGLDYGGVAREWFFLISKEMFNPYYGLFEYSATDNYTLQINPNSGLCNEDHLSYFKFIGRVAGMAVYHGKLLDGFFIRPFYKMMLHKPITLHDMESVDSEYYNSLRWILENDPTELDLRFIIDEELFGQTHQHELKNGGSEIVVTNKNKKEYIYLVIQWRFVNRIQKQMAAFKEGFFELIPQDLIKIFDENELELLMCGLGDVDVNDWREHTKYKNGYSANHQVIQWFWKAVLMMDSEKRIRLLQFVTGTSRVPMNGFAELYGSNGPQSFTVEQWGTPEKLPRAHTCFNRLDLPPYESFEELWDKLQMAIENTQGFDGVD
modifications: left off: a dimerising Fc or GST
notes: GST fusion of Nedd4, HECT E3 ligase
With B4, the “Ubiquitinated S5a?” value in series [1] was “Yes”. Also, the “S5a ubiquitination activity after thermal pre-incubation” value in series [2] (E3 pre-incubated 90 minutes at 4, 37, 45, 50 and 60° C.) is “did not show any activity when pre-incubated at temperatures higher than 4 °C; also recorded: lose activity following pre-incubation at any temperature except 4 °C”. The “Thermal Denaturation Temperature (temperature at which approximately 50% of activity was lost)” value in series [2] was found to be 37 °C.

B5: GST-Siah2: GST fusion of Seven in absentia homolog 2, RING E3 ligase (protein)
chain: MSRPSSTGPSANKPCSKQPPPQPQHTPSPAAPPAAATISAAGPGSSAVPAAAAVISGPGGGGGAGPVSPQHHELTSLFECPVCFDYVLPPILQCQAGHLVCNQCRQKLSCCPTCRGALTPSIRNLAMEKVASAVLFPCKYATTGCSLTLHHTEKPEHEDICEYRPYSCPCPGASCKWQGSLEAVMSHLMHAHKSITTLQGEDIVFLATDINLPGAVDWVMMQSCFGHHFMLVLEKQEKYEGHQQFFAIVLLIGTRKQAENFAYRLELNGNRRRLTWEATPRSIHDGVAAAIMNSDCLVFDTAIAHLFADNGNLGINVTISTCCP
modifications: left off: a dimerising Fc or GST
notes: GST fusion of Seven in absentia homolog 2, RING E3 ligase
On to B5, for which the “Ubiquitinated S5a?” value in series [1] is on record as “Yes (low)”; in series [1] (listed as Siah2) it was “very low activity”.
